Assay results taken from US20050025740A1.

Target: binding site for alpha-melanocyte stimulating hormone on mouse melanoma cells (mouse)
Assay: binding assay using mouse melanoma cells (Bagutti 1992); ratio against full-length natural alpha-MSH

relative binding (Kd of full-length natural hormone divided by Kd of the oxime analog)	Substance
3.33	dioxime formed between the aminooxyacetyl peptide (AOA-Nle-Asp-His-(D)Phe-Arg-Trp-Lys-amide) and glyoxal (O=CH-CH=O)
0.82	control monooxime of the alpha-MSH analog Nle-Asp-His-(D)Phe-Arg-Trp-Lys-amide (aminooxyacetyl peptide oximated with acetaldehyde)
